{
  "source": "IntAct's records for PubMed 22826121",
  "parents": {"B1": {"name": "Protein KASH5 (Mus musculus), Q80VJ8 (parent)", "chain": "MHSILRSSLSSREALRMRQLKGLRKERPGRHPLGVRLRAIWTSFLFPNPPHSGGKLRASTAAVEEHQEWSMDLPEGQAGGPTAQMYLWEQPEEASSRPLLSLEEQILNSTFEACDPHKTGTVTVAHLLAYLEAVTGQGPQDVRLQTLARSLDPYGEGAGATVELDTFLVVMRDWIAACQLQGGLERAEETAYEGALASPHLPSVCPEAEESANLESFGGEDPRPEGPATAELLSNLEDLELSNRRLAGENAKLQRSVETAEEGSARLGEEITALRKQLRSTQQALQVAKALDEELEDLKTLAKSLEEQNRSLMAQARHTEKEQQHLAAEVETLQEENEKLLAERDGVKRRSEELATEKDALKRQLCECERLICQREAVLSERTRHAESLARTLEEYRTTTQELRQEISNLEEQLSQSQEGPEELLEGAEAGRVGWIMALPPSLDLEIQAIRQEQDVASAGLSSPLYGVWQWEEVEPEPEPEPEPEPEPEPQEVEFPSEDPARQQTDLQREPVRALEGSRAPCLRLSRSQEEEEEEEESWVLADPSSPLGTYHHKLAPGSSRESCHIVPEMHQALMPVVRDLVPVERSRTQHCLHPQHSPGIRISQHPLVPTPVLGLLLLLLLSILLFSQSPPPTWPHLQLYYLQPPPV"}, "B2": {"name": "Protein KASH5 (Mus musculus), Q80VJ8 (parent)", "chain": "B1 chain", "partner": "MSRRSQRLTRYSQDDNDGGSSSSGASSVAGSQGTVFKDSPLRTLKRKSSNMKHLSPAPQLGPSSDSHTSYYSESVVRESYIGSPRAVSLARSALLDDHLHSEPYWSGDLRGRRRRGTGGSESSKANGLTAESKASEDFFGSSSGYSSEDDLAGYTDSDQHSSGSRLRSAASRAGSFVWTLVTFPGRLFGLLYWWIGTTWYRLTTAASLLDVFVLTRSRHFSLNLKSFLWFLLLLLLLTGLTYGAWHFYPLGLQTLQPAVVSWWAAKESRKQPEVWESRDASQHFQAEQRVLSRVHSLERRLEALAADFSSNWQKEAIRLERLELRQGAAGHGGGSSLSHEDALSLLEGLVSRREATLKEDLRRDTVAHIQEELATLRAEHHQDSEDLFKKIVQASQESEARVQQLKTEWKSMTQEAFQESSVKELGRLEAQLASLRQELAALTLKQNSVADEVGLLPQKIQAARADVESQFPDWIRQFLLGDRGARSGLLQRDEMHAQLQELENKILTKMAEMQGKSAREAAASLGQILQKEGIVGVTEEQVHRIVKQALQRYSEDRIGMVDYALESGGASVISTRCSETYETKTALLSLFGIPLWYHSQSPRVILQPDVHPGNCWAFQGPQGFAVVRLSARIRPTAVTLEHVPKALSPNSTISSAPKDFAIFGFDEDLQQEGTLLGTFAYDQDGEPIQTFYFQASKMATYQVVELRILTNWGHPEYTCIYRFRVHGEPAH"}, "B3": {"name": "Protein KASH5 (Mus musculus), Q80VJ8 (parent)", "chain": "B1 chain", "partner": "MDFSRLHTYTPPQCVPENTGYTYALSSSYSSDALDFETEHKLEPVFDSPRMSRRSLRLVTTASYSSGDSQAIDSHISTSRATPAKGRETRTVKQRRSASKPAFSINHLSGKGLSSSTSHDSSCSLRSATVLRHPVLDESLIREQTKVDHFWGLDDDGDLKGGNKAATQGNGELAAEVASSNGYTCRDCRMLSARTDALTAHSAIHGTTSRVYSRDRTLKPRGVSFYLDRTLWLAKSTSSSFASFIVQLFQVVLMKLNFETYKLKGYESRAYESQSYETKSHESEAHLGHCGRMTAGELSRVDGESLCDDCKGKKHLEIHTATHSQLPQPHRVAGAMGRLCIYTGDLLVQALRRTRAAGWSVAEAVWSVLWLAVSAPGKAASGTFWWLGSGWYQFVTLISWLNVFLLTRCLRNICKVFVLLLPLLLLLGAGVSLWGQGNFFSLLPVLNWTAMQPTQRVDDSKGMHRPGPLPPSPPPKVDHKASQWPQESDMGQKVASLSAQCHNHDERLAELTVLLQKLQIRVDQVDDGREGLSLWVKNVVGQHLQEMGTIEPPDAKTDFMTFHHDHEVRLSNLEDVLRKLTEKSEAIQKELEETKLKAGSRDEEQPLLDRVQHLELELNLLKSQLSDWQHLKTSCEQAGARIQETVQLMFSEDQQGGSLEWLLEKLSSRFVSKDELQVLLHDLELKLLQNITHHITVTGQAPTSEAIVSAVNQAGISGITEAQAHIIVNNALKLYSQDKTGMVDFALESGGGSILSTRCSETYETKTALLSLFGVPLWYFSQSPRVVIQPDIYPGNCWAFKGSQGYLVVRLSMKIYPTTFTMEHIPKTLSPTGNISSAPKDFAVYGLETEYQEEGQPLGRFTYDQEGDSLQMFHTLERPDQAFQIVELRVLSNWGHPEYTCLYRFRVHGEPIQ"}},
  "data": [
    {"variants_of": "B1", "conditions": "with sun1_human SUN1, O94901", "values": [
      {"variant": "P645A;P646A;P647A", "effect of a mutation on the interaction": "disrupting interaction"}
    ]},
    {"variants_of": "B2", "conditions": "with sun2_mouse Sun2, Q8BJS4", "values": [
      {"variant": "P645A;P646A;P647A", "effect of a mutation on the interaction": "disrupting interaction strength"}
    ]},
    {"variants_of": "B3", "conditions": "with sun1_mouse Sun1, Q9D666", "values": [
      {"variant": "P645A;P646A;P647A", "effect of a mutation on the interaction": "disrupting interaction strength"}
    ]}
  ]
}
